These results are taken from publication doi:10.1101/2024.10.07.617058.

This assay has as its target Twin-Strep-tagged human exocyst Subcomplex-1 (Exoc1:Exoc2:Exoc3:Exoc4) (human) (UniProt Q9NV70). Briefly: SPR.
UniProt Q9NV70, sequence (Q9NV70 whole entry, chain 1 of 4): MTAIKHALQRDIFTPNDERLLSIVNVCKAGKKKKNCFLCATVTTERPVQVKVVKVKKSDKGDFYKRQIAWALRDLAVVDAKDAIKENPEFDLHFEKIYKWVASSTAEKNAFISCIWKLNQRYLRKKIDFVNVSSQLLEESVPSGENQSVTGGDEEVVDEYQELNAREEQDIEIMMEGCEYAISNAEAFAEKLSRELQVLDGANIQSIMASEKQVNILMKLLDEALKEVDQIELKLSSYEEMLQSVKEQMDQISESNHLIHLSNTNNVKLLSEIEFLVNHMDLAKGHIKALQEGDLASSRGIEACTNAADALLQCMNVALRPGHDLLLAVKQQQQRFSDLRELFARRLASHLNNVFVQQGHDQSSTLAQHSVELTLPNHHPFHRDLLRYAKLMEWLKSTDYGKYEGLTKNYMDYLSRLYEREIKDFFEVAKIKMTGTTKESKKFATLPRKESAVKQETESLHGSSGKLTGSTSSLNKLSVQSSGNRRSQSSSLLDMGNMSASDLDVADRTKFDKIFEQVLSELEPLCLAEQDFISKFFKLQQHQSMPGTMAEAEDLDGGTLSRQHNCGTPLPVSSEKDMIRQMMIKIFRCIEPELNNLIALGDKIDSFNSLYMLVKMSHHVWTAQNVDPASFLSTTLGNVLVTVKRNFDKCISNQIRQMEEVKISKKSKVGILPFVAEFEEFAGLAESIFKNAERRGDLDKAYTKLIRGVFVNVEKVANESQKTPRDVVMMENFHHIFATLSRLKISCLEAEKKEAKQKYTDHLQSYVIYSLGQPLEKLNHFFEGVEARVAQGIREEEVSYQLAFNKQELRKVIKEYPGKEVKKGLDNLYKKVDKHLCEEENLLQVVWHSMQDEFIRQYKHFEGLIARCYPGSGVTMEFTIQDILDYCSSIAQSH
UniProt Q9NV70, sequence (Q96KP1 whole entry, chain 2 of 4, further chain): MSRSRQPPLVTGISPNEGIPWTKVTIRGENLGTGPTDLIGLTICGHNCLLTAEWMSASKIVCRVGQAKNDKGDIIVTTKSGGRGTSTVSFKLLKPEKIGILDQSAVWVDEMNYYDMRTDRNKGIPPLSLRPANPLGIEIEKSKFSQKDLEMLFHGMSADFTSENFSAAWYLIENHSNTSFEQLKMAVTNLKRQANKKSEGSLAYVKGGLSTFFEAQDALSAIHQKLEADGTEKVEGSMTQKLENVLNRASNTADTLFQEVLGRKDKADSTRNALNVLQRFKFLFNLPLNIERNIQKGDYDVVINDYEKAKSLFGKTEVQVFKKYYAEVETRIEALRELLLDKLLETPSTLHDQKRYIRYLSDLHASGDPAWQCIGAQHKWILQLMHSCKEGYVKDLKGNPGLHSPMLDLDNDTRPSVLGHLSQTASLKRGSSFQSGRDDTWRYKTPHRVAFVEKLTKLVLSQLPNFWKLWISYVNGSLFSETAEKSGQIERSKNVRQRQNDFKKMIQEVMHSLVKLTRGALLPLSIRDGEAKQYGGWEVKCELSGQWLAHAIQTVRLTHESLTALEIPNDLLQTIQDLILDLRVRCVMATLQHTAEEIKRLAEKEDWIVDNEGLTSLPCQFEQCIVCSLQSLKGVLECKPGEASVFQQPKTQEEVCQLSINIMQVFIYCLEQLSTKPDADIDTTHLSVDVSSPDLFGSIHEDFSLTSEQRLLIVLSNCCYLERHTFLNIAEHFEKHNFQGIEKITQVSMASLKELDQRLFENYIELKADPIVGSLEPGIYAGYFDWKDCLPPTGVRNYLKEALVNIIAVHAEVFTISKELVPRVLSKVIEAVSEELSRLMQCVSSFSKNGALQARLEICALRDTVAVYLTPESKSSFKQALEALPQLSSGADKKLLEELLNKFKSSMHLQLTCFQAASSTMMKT
UniProt Q9NV70, sequence (O60645 whole entry, chain 3 of 4, further chain): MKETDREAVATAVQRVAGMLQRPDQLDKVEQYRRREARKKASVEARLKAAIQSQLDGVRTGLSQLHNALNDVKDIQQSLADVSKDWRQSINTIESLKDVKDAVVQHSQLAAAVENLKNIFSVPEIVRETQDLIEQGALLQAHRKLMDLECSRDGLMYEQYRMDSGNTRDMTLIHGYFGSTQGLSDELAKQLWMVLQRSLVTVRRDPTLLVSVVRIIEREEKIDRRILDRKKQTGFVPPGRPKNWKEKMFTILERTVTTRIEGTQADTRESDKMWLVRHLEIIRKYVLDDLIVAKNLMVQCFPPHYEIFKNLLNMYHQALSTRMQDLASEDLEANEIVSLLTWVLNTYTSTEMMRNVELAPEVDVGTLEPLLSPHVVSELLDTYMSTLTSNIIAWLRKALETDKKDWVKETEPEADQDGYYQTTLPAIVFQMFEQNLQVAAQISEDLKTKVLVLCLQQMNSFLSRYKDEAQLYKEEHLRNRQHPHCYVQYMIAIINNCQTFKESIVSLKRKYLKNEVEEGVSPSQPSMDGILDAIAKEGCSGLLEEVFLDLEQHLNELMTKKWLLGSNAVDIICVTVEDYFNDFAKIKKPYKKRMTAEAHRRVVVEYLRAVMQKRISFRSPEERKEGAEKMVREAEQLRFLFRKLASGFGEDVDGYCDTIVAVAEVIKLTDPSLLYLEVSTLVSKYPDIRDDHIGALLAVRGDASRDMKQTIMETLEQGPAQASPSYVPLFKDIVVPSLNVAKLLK
UniProt Q9NV70, sequence (Q96A65 whole entry, chain 4 of 4, further chain): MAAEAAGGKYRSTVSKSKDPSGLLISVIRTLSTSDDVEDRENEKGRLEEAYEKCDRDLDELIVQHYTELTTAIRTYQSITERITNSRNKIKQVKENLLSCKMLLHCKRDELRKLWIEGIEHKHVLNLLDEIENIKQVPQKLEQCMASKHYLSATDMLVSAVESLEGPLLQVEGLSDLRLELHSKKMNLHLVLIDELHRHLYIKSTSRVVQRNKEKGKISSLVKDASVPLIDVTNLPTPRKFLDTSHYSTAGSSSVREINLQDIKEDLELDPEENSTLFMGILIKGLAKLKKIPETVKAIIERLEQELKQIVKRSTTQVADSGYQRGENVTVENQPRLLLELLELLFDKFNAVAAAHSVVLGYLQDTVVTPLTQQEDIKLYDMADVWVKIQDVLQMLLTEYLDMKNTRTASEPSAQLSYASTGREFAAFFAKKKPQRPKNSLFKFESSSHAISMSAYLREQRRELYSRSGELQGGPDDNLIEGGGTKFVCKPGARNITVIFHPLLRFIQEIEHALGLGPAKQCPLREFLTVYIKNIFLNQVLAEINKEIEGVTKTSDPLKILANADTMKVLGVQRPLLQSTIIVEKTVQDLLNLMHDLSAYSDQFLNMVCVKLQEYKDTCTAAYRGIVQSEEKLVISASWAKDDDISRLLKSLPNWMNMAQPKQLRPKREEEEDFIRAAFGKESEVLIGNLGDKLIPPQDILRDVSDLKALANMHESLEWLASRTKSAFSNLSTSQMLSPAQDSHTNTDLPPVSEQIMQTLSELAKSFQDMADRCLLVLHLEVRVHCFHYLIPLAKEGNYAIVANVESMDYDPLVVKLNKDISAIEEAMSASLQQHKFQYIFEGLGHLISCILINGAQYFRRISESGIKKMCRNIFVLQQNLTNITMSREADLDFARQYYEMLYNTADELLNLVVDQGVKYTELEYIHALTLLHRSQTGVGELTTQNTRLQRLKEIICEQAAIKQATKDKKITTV

For the substance “human exocyst Subcomplex-2 (Exoc5:Exoc6:Exoc7:Exoc8) (from UniProt O00471 1-708; Q8TAG9 1-804; Q9UPT5 1-735; Q8IYI6 1-725)”, the dissociation constant (Kd) – broadly, the equilibrium constant for the complex coming apart – was 0.078 µM.
